The experiment concerns intracellular proteome of ENR+CD and ENR organoids. Description: LC-MS/MS TMT proteomics of ENR+CD versus ENR organoids. The class given is cell-based, C57BL/6 mice. Conditions: for Average logFC: ENR+CD versus ENR organoids, sample pairs in aggregate (n=4, 2 technical replicates from two biological donors); for M1-1 Log2 Median Normalized / M1-2 Log2 Median Normalized / M2-1 Log2 Median Normalized / M2-2 Log2 Median Normalized: protein abundance ratio ENR+CD versus ENR organoids, LC-MS/MS TMT proteomics; for M1-1 Log2 Median Normalized: sample pair M1-1; for M1-2 Log2 Median Normalized: sample pair M1-2; for M2-1 Log2 Median Normalized: sample pair M2-1; for M2-2 Log2 Median Normalized: sample pair M2-2; for change: up = enriched in ENR+CD, down = enriched in ENR, FDR<0.05 and log fold change cut-off.

Results on eight molecules are retold here after patent US11994512B2, “Single-cell genomic methods to generate ex vivo cell systems that recapitulate in vivo biology with improved fidelity” (Massachusetts Institute of Technology, priority 2018, dated 2024).

B1: Q8VI93 (protein, UniProt Q8VI93 1-1138, looked up)
chain: MDLFHTPAGALDKLVAHNLHPAPEFTAAVRGALGSLNITLQQHRARGSQRPRVIRIAKGGAYARGTALRGGTDVELVIFLDCFQSFGDQKTCHSETLGAMRMLLESWGGHPGPGLTFEFSQSKASRILQFRLASADGEHWIDVSLVPAFDVLGQPRSGVKPTPNVYSSLLSSHCQAGEYSACFTEPRKNFVNTRPAKLKNLILLVKHWYHQVQTRAVRATLPPSYALELLTIFAWEQGCGKDSFSLAQGLRTVLALIQHSKYLCIFWTENYGFEDPAVGEFLRRQLKRPRPVILDPADPTWDVGNGTAWRWDVLAQEAESSFSQQCFKQASGVLVQPWEGPGLPRAGILDLGHPIYQGPNQALEDNKGHLAVQSKERSQKPSNSAPGFPEAATKIPAMPNPSANKTRKIRKKAAHPKTVQEAALDSISSHVRITQSTASSHMPPDRSSISTAGSRMSPDLSQIPSKDLDCFIQDHLRPSPQFQQQVKQAIDAILCCLREKSVYKVLRVSKGGSFGRGTDLRGSCDVELVIFYKTLGDFKGQKPHQAEILRDMQAQLRHWCQNPVPGLSLQFIEQKPNALQLQLASTDLSNRVDLSVLPAFDAVGPLKSGTKPQPQVYSSLLSSGCQAGEHAACFAELRRNFINTCPPKLKSLMLLVKHWYRQVVTRYKGGEAAGDAPPPAYALELLTIFAWEQGCGEQKFSLAEGLRTILRLIQQHQSLCIYWTVNYSVQDPAIRAHLLCQLRKARPLVLDPADPTWNVGQGDWKLLAQEAAALGSQVCLQSGDGTLVPPWDVTPALLHQTLAEDLDKFISEFLQPNRHFLTQVKRAVDTICSFLKENCFRNSTIKVLKVVKGGSSAKGTALQGRSDADLVVFLSCFRQFSEQGSHRAEIISEIQAHLEACQQMHSFDVKFEVSKRKNPRVLSFTLTSQTLLDQSVDFDVLPAFDALGQLRSGSRPDPRVYTDLIHSCSNAGEFSTCFTELQRDFITSRPTKLKSLIRLVKYWYQQCNKTIKGKGSLPPQHGLELLTVYAWEQGGQNPQFNMAEGFRTVLELIVQYRQLCVYWTINYSAEDKTIGDFLKMQLRKPRPVILDPADPTGNLGHNARWDLLAKEATVYASALCCVDRDGNPIKPWPVKAAV
modifications: full-length
As for B1, the “Average logFC” value came out at 1.461, the “M1-1 Log2 Median Normalized” value came to 1.378, the “M1-2 Log2 Median Normalized” value is listed as 0.979 and the “M2-1 Log2 Median Normalized” value turned out to be 1.6325. In addition, the “M2-2 Log2 Median Normalized” value was 1.853 and the change entry is reported as “up”.

B2: Q920F6 (protein, UniProt Q920F6 1-1248, looked up)
chain: MGHLELLLVENFKSWRGRQVIGPFKRFTCIIGPNGSGKSNVMDALSFVMGEKTTNLRVKNIQELIHGAHTGKPVSSSASVTIIYIEDSGEEKTFTRIIRGGCSEYHFGDKPVSRSVYVAQLENIGIIVKAQNCLVFQGTVESISMKKPKERTQFFEEISTSGEFIGEYEAKKKKLQKAEEDAQFHFNVKKNVAAERKHAKIEKEEAEHYQNLLEELKINKIQLMLFQLYYNEEKINVLNTELEQMDGNLSVVKDTLSHHENIFKAKKKDYGMLTRQLQQTAKELKSVEAILNQKRPQYIKAKENTSHHLKKLDLSKKLITDNEKQCSKQEDGIRALVAELADLDRAWKSFEKQMEEKILQKGRDIELENSQLDRYKLLKEQVRRKVGIMTQQLEKLQWEQKAEKERLAFEKRRHGDTQGNLKQIKEQIEEHKKRIEKLEEYTKTCMDCLEDKKQQEEALKKEIENTKSRMSEVNEELSLIRNELQNAGIDNHEGKRQQKRAEVLEHLKRLYPDSVFGRLLDLCHPIHKKYQLAVTKLFGRYMVAIVVASEKIAKDCIRFLKAERAEPETFLALDYLDIKPINERLREIKGCKMMIDVIKTQFPQLKKVIQFVCGNGLVCETVEEARHIAFGGPERRKAVALDGTLFLKSGVISGGSSDLKHKALCWDEKELHNLRDKRSQLVQELKELMKTLRKETDLKQIQTLVQGTNTRLKYSQNELEMIKKKHLATFYREQSQLQSELLNIDSQCTMLSEGINKQQQKIEEFQDKIDEVEDDIFQDFCEEIGVENIREFENKHVKQQQENDQKRLEFEKQKTRLNIQLEYSRNQLKKKLNNIDTLKTTIQKGKEDIDNLKKTEEECLKIVEELMVKQEQIKEVLATQSSNIEKIHIQIEEERKKVLAVDREVGKLQKEVVIIQGSLEQKLLEKHNLLLDCKVQDIDISLVLGSLEDIIEMELTETESTQATADIYEKEASIQIDYSPLREDLKALQSDKEVEAHLTLLLQQVASQENTLLKTTAPNLRAQENLKTVRDKFQESADVFEASRKEARICRQEFEQVKRRRYDAFSQCFEHISVSIDQIYKKLCRNNSAQAFLSPENPEEPYLDGISYNCVAPGKRFMPMDNLSGGEKCVAALALLFAVHSFRPAPFFVLDEVDAALDNTNIGKVSSYIKEQSQEQFQMIIISLKEEFYSKADALIGVYPEHNECMFSHVLTLDLSKYPDTEDQEGSRSHRKPRVPRVSMSPKSPQSR
modifications: full-length
B2: the “Average logFC” value is given as −1.932, the “M1-1 Log2 Median Normalized” value was −1.931, the “M1-2 Log2 Median Normalized” value is given as −0.989 and the “M2-1 Log2 Median Normalized” value is −2.1915. Moreover, the “M2-2 Log2 Median Normalized” value is given as −1.967 and the change entry is reported as “down”.

B3: Q8VE33 (protein, UniProt Q8VE33 1-370, looked up)
chain: MATPNNLTPTNCSWWPISALESDAAKPVETPDAPEASSPAHWPKESLVLYHWTQSFSSQKRLQVRLVIAEKGLACEERDVSLPQSEHKEPWFMRLNLGEEVPVIIHRDNIISDYDQIIDYVERTFTGEHVVALMPEAGSPQHARVLQYRELLDALPMDAYTHGCILHPELTTDSMIPKYATAEIRRHLANATTDLMKLDHEEEPQLSEPYLSKQKKLMAKILEHDDVSYLKKILGELAMVLDQIEAELEKRKLENEGQTCELWLCGCAFTLADVLLGATLHRLKFLGLSKKYWEDGSRPNLQSFFERVQRRFAFRKVLGDIHTTLLSAVIPNAFRLVKRKPPSFFGASFLMGSLGGMGYFAYWYLKKKYI
modifications: full-length
As to B3, the “Average logFC” value was 1.453, the “M1-1 Log2 Median Normalized” value amounted to 2.102, the “M1-2 Log2 Median Normalized” value is 0.932 and the “M2-1 Log2 Median Normalized” value was 1.1705. Also, the “M2-2 Log2 Median Normalized” value turned out to be 1.609 and the change entry was “up”.

B4: Q8VHC3 (protein, UniProt Q8VHC3 1-145, looked up)
chain: MSILLSPPSLLLLLAALVAPATSTTNYRPDWNRLRGLARGRVETCGGUQLNRLKEVKAFVTEDIQLYHNLVMKHLPGADPELVLLSRNYQELERIPLSQMTRDEINALVQELGFYRKSAPEAQVPPEYLWAPAKPPEEASEHDDL
modifications: full-length
Take B4: the “Average logFC” value is recorded as 1.481, the “M1-1 Log2 Median Normalized” value is recorded as 1.688, the “M1-2 Log2 Median Normalized” value turned out to be 1.48 and the “M2-1 Log2 Median Normalized” value is 1.1495. Moreover, the “M2-2 Log2 Median Normalized” value is on record as 1.521 and the change result is listed as “up”.

B5: Q8VEE1 (protein, UniProt Q8VEE1 1-365, looked up)
chain: MAKVAKDLNPGVQKMSLGQQQSARGVACLRCKGMCSGFEPHSWRKICKSCKCSQEEHCLSSDLDDDRKIGRLLMDSKYATLTARVKGGDGIRIYKRNRMIMTNPIATGKDPTFDTITYEWAPPGVTQKLGLQYMELIPKERQPVTGTEGALYRRRQLMHQLPIYDQDPSRCRGLVENELKAMEEFVKHYKSEALGVGEVALPGQGGLPKEENKTQEKPEGTETTAPTTNGSLGDPSKEVEYVCELCKGAAPVDSPVVYADRAGYSKQWHPTCFQCIKCSEPLVDLIYFWKDGAPWCGRHYCESVRPRCSGCDEIIFSEDYQRVEDLAWHRKHFICEGCEQLLSGRAYIVTKGQLLCPTCSKSKRS
modifications: full-length
In the case of B5, the “Average logFC” value is listed as −1.258, the “M1-1 Log2 Median Normalized” value was −1.327, the “M1-2 Log2 Median Normalized” value is −1.525 and the “M2-1 Log2 Median Normalized” value is −1.0345. Moreover, the “M2-2 Log2 Median Normalized” value is reported as −1.145 and the change result is reported as “down”.

B6: Q8WUR0 (protein, UniProt Q8WUR0 1-141, looked up)
chain: MPIMVDDIMRLLCSISQERKMKAAVKHSGKGAMVAGAMAFVGGLVGGPPGIAVGGTVGGLLGAWMTSGQFKPVPQILMELPPAEQRKLVNEAMAIIGNLDWTDAVQLTALVMSNQAMQQRLLAMLTTYVTKELQAEIRYED
modifications: full-length
On to B6, for which the “Average logFC” value is on record as −1.514, the “M1-1 Log2 Median Normalized” value was −0.949, the “M1-2 Log2 Median Normalized” value is recorded as −1.798 and the “M2-1 Log2 Median Normalized” value is listed as −1.4995. Further, the “M2-2 Log2 Median Normalized” value is on record as −1.811 and the change entry is listed as “down”.

B7: Q91Y74 (protein, UniProt Q91Y74 1-333, looked up)
chain: MTSKSHWKLLALALVLVVVMVWYSISREDRYIEFFYFPISEKKEPCFQGEAERQASKIFGNRSREQPIFLQLKDYFWVKTPSTYELPFGTKGSEDLLLRVLAITSYSIPESIKSLECRRCVVVGNGHRLRNSSLGGVINKYDVVIRLNNAPVAGYEGDVGSKTTIRLFYPESAHFDPKIENNPDTLLVLVAFKAMDFHWIETILSDKKRVRKGFWKQPPLIWDVNPKQVRILNPFFMEIAADKLLSLPIQQPRKIKQKPTTGLLAITLALHLCDLVHIAGFGYPDASNKKQTIHYYEQITLKSMAGSGHNVSQEAIAIKRMLEMGAVKNLTYF
modifications: full-length
For the molecule B7, the “Average logFC” value is −1.232, the “M1-1 Log2 Median Normalized” value is on record as −0.783, the “M1-2 Log2 Median Normalized” value was −1.258 and the “M2-1 Log2 Median Normalized” value was −1.9425. Also, the “M2-2 Log2 Median Normalized” value is reported as −0.946 and the change entry is “down”.

B8: Q91WU0 (protein, UniProt Q91WU0 1-561, looked up)
chain: MFLSTLFLVSLATCVICGNPSSPPVVDTAHGKVLGKHVNVEGFSQPVAVFLGIPFAKPPLGSLRFAPPQPAEPWSSVKNATTYPPMCSQDAARGQAVNDLITNRKEKIHLEFSEDCLYLNIYTPADFSKNSRLPVMVWIHGGGLKLGGASSFDGRALSAYENVVVVAIQYRLSIWGFFSTGDEHSRGNWGHLDQVAALHWVQDNIANFGGDPGSVTIFGESAGGYSVSILILSPLSKNLFHRAISESGVAFIPGMFTKDVRPITEQIAVTAGCKTTTSAVIVHCMRQKTEEELLEIMHKLNLYKLSLQGDTKNSDQFVTSVLDGVVLPKDPKEILAEKNFNTVPYIVGINKQECGWLLPTMTGFLPADVKLDKKKAIALLEQFASMTGIPEDIIPVAVEKYTKGSDDPDQIREGVLDAMGDVAFGVPSVIVSRGHRDTGAPTYMYEYQYYPSFSSPQRPKNVVGDHADDVYSVFGAPILREGASEEEINLSKMVMKFWANFARNGNPNGKGLPHWPKYDQKEGYLHIGGTTQQAQRLKEEEVTFWTQSLAKKQPQPYHNEL
modifications: full-length
As for B8, the “Average logFC” value is listed as −1.598, the “M1-1 Log2 Median Normalized” value is −1.5, the “M1-2 Log2 Median Normalized” value was −1.991 and the “M2-1 Log2 Median Normalized” value was −2.4445. In addition, the “M2-2 Log2 Median Normalized” value is listed as −0.456 and the change entry is “down”.
